This is an account of results in PMC4348151.

In one assay the target is gp41-longNC. The assay is described as follows: BLI. The following applies: pH 4.0; second pH 7.0; 0.1% DPC.
In another assay the target is gp41-longNC (HIV-1) (UniProt P04578). The assay is described as follows: AUC.

As for 2F5, the “fold difference in KD at pHs 4 and 7” value with gp41-longNC is recorded as 4,000-fold.

In the case of 4E10, in the assay with gp41-longNC, the fold difference is listed as 30-fold.

In the assay with gp41-longNC (HIV-1), “gp41-longNC (from UniProt P04578) (domain or fragment)” returned a stoichiometry N of 3.

The term stoichiometry N denotes a count of units in the complex or per binding partner.
